The values below come from patent US20100166747A1.

The target of test [1] is hu IGF-1R(ECD)-C3-muIgG1Fc (human; mouse). Description: ORIGEN competition on IGF-1R(ECD)-C3-muFc beads; competitor 1 nM Ru-IGF-1.
Test [2] has the same target. The test can be described thus: ORIGEN competition on IGF-1R(ECD)-C3-muFc beads; competitor 2 nM Ru-IGF-2.

In the case of “murine anti-IGF-1R antibody αIR3 (Calbiochem)”, the Max (%) maximum level of inhibition at 1 µM antibody in test [1] was determined as 91%.
“murine anti-IGF-1R antibody 1H7 (Santa Cruz Biotechnology)”: the Max (%) maximum level of inhibition at 1 µM antibody in test [2] worked out at 99%; in test [1], 89%.
